# Laboratory results reported in IntAct's records for PubMed 24240280.
# B1: Synaptic vesicle glycoprotein 2C (Homo sapiens), Q496J9 (parent)
# chain: MEDSYKDRTSLMKGAKDIAREVKKQTVKKVNQAVDRAQDEYTQRSYSRFQDEEDDDDYYPAGETYNGEANDDEGSSEATEGHDEDDEIYEGEYQGIPSMNQAKDSIVSVGQPKGDEYKDRRELESERRADEEELAQQYELIIQECGHGRFQWALFFVLGMALMADGVEVFVVGFVLPSAETDLCIPNSGSGWLGSIVYLGMMVGAFFWGGLADKVGRKQSLLICMSVNGFFAFLSSFVQGYGFFLFCRLLSGFGIGGAIPTVFSYFAEVLAREKRGEHLSWLCMFWMIGGIYASAMAWAIIPHYGWSFSMGSAYQFHSWRVFVIVCALPCVSSVVALTFMPESPRFLLEVGKHDEAWMILKLIHDTNMRARGQPEKVFTVNKIKTPKQIDELIEIESDTGTWYRRCFVRIRTELYGIWLTFMRCFNYPVRDNTIKLTIVWFTLSFGYYGLSVWFPDVIKPLQSDEYALLTRNVERDKYANFTINFTMENQIHTGMEYDNGRFIGVKFKSVTFKDSVFKSCTFEDVTSVNTYFKNCTFIDTVFDNTDFEPYKFIDSEFKNCSFFHNKTGCQITFDDDYSAYWIYFVNFLGTLAVLPGNIVSALLMDRIGRLTMLGGSMVLSGISCFFLWFGTSESMMIGMLCLYNGLTISAWNSLDVVTVELYPTDRRATGFGFLNALCKAAAVLGNLIFGSLVSITKSIPILLASTVLVCGGLVGLCLPDTRTQVLM
# Variants of: B1
# Conditions: with bxa1_clobo botA
row,Variant,effect of a mutation on the interaction
1,F563A,disrupting interaction strength
